± gives the uncertainty stated by the source.
Assay: protein stability index of a GFP-peptide fusion (yeast GPS) (PSI 1-4); higher = more stable; sorted into four equal gates, so the index is relative within each strain
Procedure, shortened: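 Tiled 17-residue yeast protein peptides were fused downstream of GFP in a plasmid that also expresses Cherry, and the pooled library was carried in yeast. Mid-log cultures in leucine-free medium were sorted into four equal gates by GFP/Cherry fluorescence ratio, and plasmids from each gate were PCR-amplified and Illumina-sequenced, with reads assigned to strains by barcodes. The protein stability index for each peptide was each gate's read frequency times its gate number, summed.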

Sequence	protein stability index (doa10∆)	protein stability index (pdr5∆)	protein stability index (san1∆)	protein stability index (ubr1∆)
QLEEDENITNKVTEKVL [CSI1]	3.2 ± 0.088	3.2 ± 0.09	3.33 ± 0.057	3.13 ± 0.055
LHKRQQFSESTHNDIDS [YJL039C/NUP192]	2.9 ± 0.081	3.03 ± 0.091	2.78 ± 0.051	3.03 ± 0.05
ALEFLNTTLQDNVSFIE [REC8]	2.95 ± 0.072	3.27 ± 0.12	3.05 ± 0.11	2.87 ± 0.072
SKSNLIHNYDSKKSTIT [RGR1]	3.03 ± 0.067	3.03 ± 0.054	3.05 ± 0.04	3.11 ± 0.038
LVKIDDLSANQRETMKE [SMC1]	3.29 ± 0.083	3.22 ± 0.091	3 ± 0.11	3.45 ± 0.089
LCLMTWKEVMFDPSKDV [CDC53]	2.52 ± 0.079	2.72 ± 0.068	2.83 ± 0.097	3.09 ± 0.073
VSPNISSASPSALTSPT [SIR3]	2.45 ± 0.056	2.78 ± 0.074	2.95 ± 0.06	2.53 ± 0.04
PLRGALATYGLTIDDLG [FAS2]	2.38 ± 0.087	2.51 ± 0.1	2.19 ± 0.1	2.72 ± 0.079
TAAEKKERLTKEAAAVA [RPL8A]	3.25 ± 0.12	2.79 ± 0.16	3.13 ± 0.096	2.89 ± 0.15
ESSKALADSLDRCVDPE [DIS3]	2.75 ± 0.084	2.27 ± 0.076	2.29 ± 0.21	2.38 ± 0.19
PGRKYTTLGKLSTSVGW [RPL16A]	2.92 ± 0.089	2.78 ± 0.092	2.2 ± 0.23	2.47 ± 0.091
NRRWTQRRGPLVVYAED [RPL4A]	2.44 ± 0.16	2.48 ± 0.17	2.12 ± 0.093	2.16 ± 0.1
DDDERVEYNLFTNRSTM [BRN1]	2.97 ± 0.12	3.2 ± 0.12	3.11 ± 0.07	3.1 ± 0.068
VYYSKRGFKVGLVCADT [SRP54]	2.41 ± 0.12	2.29 ± 0.073	2.19 ± 0.098	2.5 ± 0.054
FGAKPDENKASATSKPA [YJL041W/NSP1]	2.59 ± 0.066	2.87 ± 0.052	2.56 ± 0.057	2.74 ± 0.052
AVNSIMALKFVSIKFTN [ECM29]		3.12 ± 0.11	2.87 ± 0.13	3.13 ± 0.22
NTATNALRPSDIFGANA [YOR098C/NUP1]	3.08 ± 0.069	3.24 ± 0.074	3.27 ± 0.061	3.2 ± 0.074
EDGLLEGLDELPKIIQL [SOH1]	3.11 ± 0.07	3.3 ± 0.047	3.12 ± 0.044	3.15 ± 0.051
LLDRILPKLKATGHRVL [SNF2]	2.57 ± 0.1	2.54 ± 0.08	2.3 ± 0.08	2.63 ± 0.088
GLGETSGDNHTQQSHEQ [RPT4]	3.32 ± 0.14	3.19 ± 0.21		3.23 ± 0.22
DNNNGDDDDEDDDEIVM [SKP1]	3.04 ± 0.065	2.93 ± 0.052	2.89 ± 0.04	2.99 ± 0.048
VPCDRIEKSRLFSEKTI [SNF6]	2.58 ± 0.11	2.78 ± 0.058	2.62 ± 0.096	2.2 ± 0.044
KILRDNIQGITKPAIRR [HHF1]	3.17 ± 0.083	3.33 ± 0.077	3.08 ± 0.055	3.21 ± 0.058
NGKVQYFLRRQYILQIV [YJL039C/NUP192]	1.42 ± 0.054	1.56 ± 0.07	1.33 ± 0.18	1.45 ± 0.053
AGILRGYDIFLNVVLDD [SMX2]	3.14 ± 0.055	2.38 ± 0.06	2.51 ± 0.084	2.75 ± 0.051
MLSAHNIIESIANFSRA [YJR042W/NUP85]	2.31 ± 0.074	2.43 ± 0.063	2.87 ± 0.048	2.48 ± 0.036

Sequence	protein stability index (doa10∆)	protein stability index (pdr5∆)	protein stability index (san1∆)	protein stability index (ubr1∆)
VSGDLNPIHVSRHFASY [FAS1]	2.51 ± 0.12	2.88 ± 0.068	2.78 ± 0.079	2.81 ± 0.062
RYISTLTLYLFQDYLTQ [IRR1]	2.14 ± 0.2	1.76 ± 0.08	3.14 ± 0.24	3.38 ± 0.27
FEKNTILQQRSKINSTE [MED4]	2.79 ± 0.073	3.07 ± 0.084	2.81 ± 0.07	3.15 ± 0.086
KRVVVPQALRVLRLKPG [RPL16A]	3.05 ± 0.087	3.11 ± 0.1	3.15 ± 0.056	2.09 ± 0.12
STLTLSDSEDSDAKEQH [ESC2]				1.06 ± 0.13
DIFGANAASGSNSNVTN [YOR098C/NUP1]	2.11 ± 0.064	1.65 ± 0.054	1.64 ± 0.11	2.63 ± 0.079
RDIEKITSLYALIRRDF [CDC53]	2.1 ± 0.035	1.89 ± 0.03	1.84 ± 0.05	1.75 ± 0.021
THKVTDIYSHEYKVITS [YMR129W/POM152]	1.71 ± 0.065	1.97 ± 0.082	2.38 ± 0.089	2.13 ± 0.064
DANLNDLPETGFFENIE [IRR1]	3.13 ± 0.2	3.24 ± 0.13	3.35 ± 0.1	3.27 ± 0.12
LTTQFVTDKYTAKKTNR [YDL088C/ASM4]	2.74 ± 0.14	2.83 ± 0.093		2.8 ± 0.11
IGKMYDEYLGSHTDQPA [NNF1]	3.37 ± 0.16	2.9 ± 0.17		3.28 ± 0.086
NKHLTTLVEIFLERKCV [SSN3]	2.6 ± 0.17	2.73 ± 0.2		3.2 ± 0.17
ALLIEVFTALLRLFINE [ITC1]	2.11 ± 0.087	1.53 ± 0.076	1.42 ± 0.097	1.24 ± 0.051
QFQRLAPSLTVPPIASP [PRE2]	2.14 ± 0.053	2.03 ± 0.049	1.85 ± 0.055	2.15 ± 0.038
FISYHDKYLCMLKTCVF [NUT1]	2.67 ± 0.057	2.95 ± 0.064	3.03 ± 0.061	2.13 ± 0.042
KGKDFEITAKEVYDFTH [FAS1]	3.09 ± 0.059	3.23 ± 0.055	2.97 ± 0.052	3.05 ± 0.046
GGGAARRQAVDVSPLRR [RPS5]	2.28 ± 0.1	1.76 ± 0.056	2.15 ± 0.11	1.85 ± 0.093
ALLKLSVKLKQKRLEAG [DIS3]	1.11 ± 0.077	1.37 ± 0.085	1.04 ± 0.21	1.15 ± 0.099
KHFIQGGSFGNREEFIN [RPL7A]	1.61 ± 0.21	1.86 ± 0.14	1.21 ± 0.23	1.56 ± 0.04
KLSKVQLYEDLCRYEDT [MED4]	2.88 ± 0.069	3.29 ± 0.12	3.32 ± 0.11	3.21 ± 0.071
LSHYIRQCFQDNCCDFK [MED1]	2.78 ± 0.045	2.75 ± 0.052	2.94 ± 0.05	2.83 ± 0.032
FRGARKNKGLVVSPYDY [DIB1]	2.58 ± 0.077	2.54 ± 0.088	2.53 ± 0.09	2.82 ± 0.081
NVMLNIYPRTVIDIEIH [SKI6]	1.35 ± 0.039	1.74 ± 0.046	1.58 ± 0.11	1.76 ± 0.034
MAILLLYNDADVLTLEN [CDC53]	1.58 ± 0.09	1.93 ± 0.063	2.5 ± 0.084	2.75 ± 0.06
LAKPVFHVGFIAKIKKV [RPO21]	1.21 ± 0.053	2.15 ± 0.067	1.78 ± 0.073	2.02 ± 0.06
FQLIDMKDKEINIQKYN [CSI1]	2.47 ± 0.17	1.98 ± 0.11		2.57 ± 0.14

Sequence	protein stability index (doa10∆)	protein stability index (pdr5∆)	protein stability index (san1∆)	protein stability index (ubr1∆)
CYLRWQHLRNEHGMNAP [SNF2]	3.15 ± 0.072	3.33 ± 0.1	3.4 ± 0.087	2.9 ± 0.066
PELNVSLNLTDDVISNA [MCD1]	3.09 ± 0.04	3.21 ± 0.042	3.1 ± 0.036	3.15 ± 0.032
LYENIASSPIILEEGSS [RPN10]	2.2 ± 0.04	2.37 ± 0.047	2.35 ± 0.06	2.35 ± 0.036
NPLIELTPIQKKIMDET [ITC1]	2.67 ± 0.087	3.08 ± 0.08	3.24 ± 0.057	3.07 ± 0.076
MEKKKSSSLSLESFMKS [SNM1]	1.84 ± 0.04	1.91 ± 0.045	2.62 ± 0.06	2.04 ± 0.04
ENANADLENKFNRLKKQ [YIL149C/MLP2]	3.06 ± 0.067	3.07 ± 0.057	3.09 ± 0.068	3 ± 0.037
TRGGASALIENNLFRII [YJL039C/NUP192]	2.48 ± 0.048	2.41 ± 0.052	2.41 ± 0.052	2.7 ± 0.041
TANDRQINNVHLIPNEI [RPN4]	2.88 ± 0.063	3.02 ± 0.062	2.92 ± 0.052	2.94 ± 0.055
QDDDDYVDTATAKRKSR [IRR1]	2.83 ± 0.061	2.94 ± 0.054	2.15 ± 0.083	2.93 ± 0.039
FSERAAMFAALQQKQQQ [SWI1]	1.7 ± 0.042	2.15 ± 0.042	2.05 ± 0.078	2.01 ± 0.027
VMTVPGIDPTRIYTNSF [RPO21]	2.44 ± 0.072	2.11 ± 0.067	2.59 ± 0.08	2.1 ± 0.056
GSKSDGSAATSGFEFSK [RPN1]	2.7 ± 0.14	3.09 ± 0.14	2.72 ± 0.14	3.1 ± 0.12
YITARIMAKRPFDKKSN [FAS1]	2.74 ± 0.094	2.79 ± 0.078	1.96 ± 0.12	2.86 ± 0.081
NKIRNLELPLCPYCYKK [SIR2]	2.52 ± 0.055	1.95 ± 0.062	1.97 ± 0.069	1.98 ± 0.074
SDSSSEDEVKVEGPKFT [YLR335W/NUP2]	3.4 ± 0.12	3.47 ± 0.13	3.4 ± 0.06	3.44 ± 0.16
LQKEFLPHITQLEGFES [RPB2]	1.9 ± 0.047	1.84 ± 0.041	1.69 ± 0.053	1.55 ± 0.025
DGGKTLRACAANVDQIS [YMR129W/POM152]	2.15 ± 0.13	2.94 ± 0.11	2.94 ± 0.13	2.37 ± 0.11
SFKYLSNNDEDDKDCTI [RGR1]	2.51 ± 0.05	2.41 ± 0.04	2.18 ± 0.055	2.62 ± 0.034
RPHQSRESLIMLLEEQL [MED7]	2 ± 0.081	2.37 ± 0.093	1.45 ± 0.19	2.12 ± 0.054
RHFGMGPHKGKAPRILS [RPL18A]	2.57 ± 0.14	2.52 ± 0.079	3.09 ± 0.13	2.73 ± 0.1
GTLLREDDNTPAGHAGN [YDL088C/ASM4]	3.03 ± 0.084	2.79 ± 0.086	3.09 ± 0.054	3 ± 0.045
KPMTAYARADTHFLLNI [RRP6]	2.26 ± 0.05	2.17 ± 0.047	2.34 ± 0.06	1.87 ± 0.046
ETRAELSQLCAVPLQIV [RPO21]	1.96 ± 0.087	2.32 ± 0.14	2.24 ± 0.21	2.71 ± 0.19
AEEFDFNVPVVSKQLGN [YAR002W/NUP60]	2.47 ± 0.18	1.35 ± 0.17	1.28 ± 0.14	1.14 ± 0.11
IYQHLASHNEKDQDSQI [SRP72]	2.58 ± 0.092	2.45 ± 0.074	2.53 ± 0.12	2.78 ± 0.099
RSVDRAGRKFKSRRCDD [POP4]	3.1 ± 0.079	3.16 ± 0.078	3.33 ± 0.071	3.18 ± 0.075

Source: the supplement of paper PMC9732359
